B1: MINA53 (Homo sapiens) (protein)
chain: MPKKAKPTGSGKEEGPAPCKQMKLEAAGGPSALNFDSPSSLFESLISPIKTETFFKEFWEQKPLLIQRDDPALATYYGSLFKLTDLKSLCSRGMYYGRDVNVCRCVNGKKKVLNKDGKAHFLQLRKDFDQKRATIQFHQPQRFKDELWRIQEKLECYFGSLVGSNVYITPAGSQGLPPHYDDVEVFILQLEGEKHWRLYHPTVPLAREYSVEAEERIGRPVHEFMLKPGDLLYFPRGTIHQADTPAGLAHSTHVTISTYQNNSWGDFLLDTISGLVFDTAKEDVELRTGIPRQLLLQVESTTVATRRLSGFLRTLADRLEGTKELLSSDMKKDFIMHRLPPYSAGDGAELSTPGGKLPRLDSVVRLQFKDHIVLTVLPDQDQSDEAQEKMVYIYHSLKNSRETHMMGNEEETEFHGLRFPLSHLDALKQIWNSPAISVKDLKLTTDEEKESLVLSLWTECLIQVV
B2: NO66 (Homo sapiens) (protein)
chain: MDGLQASAGPLRRGRPKRRRKPQPHSGSVLALPLRSRKIRKQLRSVVSRMAALRTQTLPSENSEESRVESTADDLGDALPGGAAVAAVPDAARREPYGHLGPAELLEASPAARSLQTPSARLVPASAPPARLVEVPAAPVRVVETSALLCTAQHLAAVQSSGAPATASGPQVDNTGGEPAWDSPLRRVLAELNRIPSSRRRAARLFEWLIAPMPPDHFYRRLWEREAVLVRRQDHTYYQGLFSTADLDSMLRNEEVQFGQHLDAARYINGRRETLNPPGRALPAAAWSLYQAGCSLRLLCPQAFSTTVWQFLAVLQEQFGSMAGSNVYLTPPNSQGFAPHYDDIEAFVLQLEGRKLWRVYRPRVPTEELALTSSPNFSQDDLGEPVLQTVLEPGDLLYFPRGFIHQAECQDGVHSLHLTLSTYQRNTWGDFLEAILPLAVQAAMEENVEFRRGLPRDFMDYMGAQHSDSKDPRRTAFMEKVRVLVARLGHFAPVDAVADQRAKDFIHDSLPPVLTDRERALSVYGLPIRWEAGEPVNVGAQLTTETEVHMLQDGIARLVGEGGHLFLYYTVENSRVYHLEEPKCLEIYPQQADAMELLLGSYPEFVRVGDLPCDSVEDQLSLATTLYDKGLLLTKMPLALN

What was measured:
[1] = substrate: CC[C@H](C)[C@H](NC(=O)[C@H](CCCNC(=N)N)NC(=O)[C@H](Cc1c[nH]cn1)NC(=O)[C@H](Cc1c[nH]cn1)NC(=O)[C@H](Cc1c[nH]cn1)NC(=O)[C@H](CC(C)C)NC(=O)CNC(=O)CNC(=O)[C@H](C)NC(=O)[C@H](CC(N)=O)NC(=O)CNC(=O)[C@H](CCCNC(=N)N)NC(=O)CN)C(=O)N[C@@H](CC(N)=O)C(=O)N[C@@H](Cc1ccccc1)C(=O)N[C@@H](CC(=O)O)C(=O)N[C@@H](CCCCN)C(=O)N[C@@H](Cc1ccc(O)cc1)C(=O)N[C@@H](Cc1c[nH]cn1)C(=O)N1CCC[C@H]1C(=O)O; experiment: Determination of enzyme kinetic parameters (MS assay); assay type: biochemical; details: other: 2OG, Fe(II): MINA53 (Met26-Val464), n = 4; peptide: MINA53 (Met1-Val464), n = 3; means ± 95% confidence
Experimental: (§1) Assays were performed in a 96-well, 2 mL polypropylene plate (Greiner Bio-one). […] Ion chromatogram data for the Rpl27a (m/z +5 charge state) and Rpl8 substrates (m/z +4 charge state) were extracted, and the peak areas were integrated using RapidFire Integrator software (Agilent). The integrated peak areas were exported into Excel, and the percent hydroxylation was calculated. The initial rate slope for each peptide concentration was calculated using excel, and the data were fitted to the Michaelis–Menten equation using GraphPad prism 5.
(§2) The concentrations were prepared as an 8-point 2-fold dilution series with a starting concentration of 20 μM. Each time series was based on 6-time points (0, 1, 5, 10, 20, and 30 min for NO66 and 0, 1, 3, 5, 7, and 10 min for MINA53). […] Reactions were stopped by the addition of 5 μL of 10% (v/v) formic acid. The first four reaction data points (starting with the 1 min time point) were used for kinetic analysis.

[2] = substrate: CC[C@H](C)[C@H](NC(=O)[C@H](Cc1c[nH]cn1)NC(=O)[C@H](CCC(N)=O)NC(=O)[C@H](Cc1c[nH]cn1)NC(=O)[C@H](CC(N)=O)NC(=O)CNC(=O)CNC(=O)CNC(=O)[C@H](Cc1ccccc1)NC(=O)[C@@H]1CCCN1C(=O)[C@H](Cc1c[nH]cn1)NC(=O)[C@H](CCC(=O)O)NC(=O)[C@@H](NC(=O)[C@@H]1CCCN1C(=O)[C@@H](N)CC(N)=O)C(C)C)C(=O)NCC(=O)N[C@@H](CCCCN)C(=O)N1CCC[C@H]1C(=O)N[C@@H](CO)C(=O)N[C@H](C(=O)O)[C@@H](C)O; experiment: as above; assay type: biochemical; details: other: 2OG, Fe(II): NO66 (Ser183-Asn641), n = 4; peptide: NO66 (Gln116-Asn641), n = 3; means ± 95% confidence
Experimental: as §1, §2

Protein	Km [1]	Vmax [1]	Km [2]	Vmax [2]
B1	10.5 ± 5.5 µM	0.36 ± 0.1 µM/min	–	–
B2	–	–	19.11 ± 6.3 µM	0.34 ± 0.05 µM/min
